In patent publication US20050272653A1 (ACCELERON PHARMA, published 2005):

Target: T1, BSA (bovine, UniProt P02769 25-607)
T1 construct: Control analyte in the BiaCore experiment
Experiment: BiaCore CM5 chip, BMP3 pro-MuIgG2a amine coupled, BSA flowed over

T1 sequence (P02769 25-607 limits assumed): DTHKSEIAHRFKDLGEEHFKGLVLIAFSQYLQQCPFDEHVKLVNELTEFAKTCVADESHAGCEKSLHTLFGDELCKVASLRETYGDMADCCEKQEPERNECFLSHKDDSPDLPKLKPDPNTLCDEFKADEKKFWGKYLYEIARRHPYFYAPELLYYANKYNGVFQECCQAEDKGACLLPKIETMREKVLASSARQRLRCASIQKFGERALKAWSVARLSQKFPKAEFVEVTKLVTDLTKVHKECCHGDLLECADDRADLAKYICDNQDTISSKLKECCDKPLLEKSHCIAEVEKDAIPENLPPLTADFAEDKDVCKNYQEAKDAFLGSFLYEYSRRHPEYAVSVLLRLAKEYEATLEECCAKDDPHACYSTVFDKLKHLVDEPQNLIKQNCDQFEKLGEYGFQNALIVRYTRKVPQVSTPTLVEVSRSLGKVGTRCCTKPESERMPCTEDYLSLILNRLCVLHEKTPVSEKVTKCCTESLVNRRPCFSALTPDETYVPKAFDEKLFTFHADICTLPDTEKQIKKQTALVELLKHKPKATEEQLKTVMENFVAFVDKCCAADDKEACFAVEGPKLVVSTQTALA

- binding result: no binding
B1: BMP3A propeptide-Murine IgG2a peptide Fc fusion protein (Fc fusion)
chain: ERPKPPFPELRKAVPGDRTAGGGPDSELQPQDKVSEHMLRLYDRYSTVQAARTPGSLEGGSQPWRPRLLREGNTVRSFRAAAAETLERKGLYIFNLTSLTKSENILSATLYFCIGELGNISLSCPVSGGCSHHAQRKHIQIDLSAWTLKFSRNQSQLLGHLSVDMAKSHRDIMSWLSKDITQFLRKAKENEEFLIGFNITSKGRQLPKRRLPFPEPYILVYANDAAISEPESVVSSLQGHRNFPTGTVPKWDSHIRAALSIERRKKRSTGVLLPLQNNELPGAEYQYKKDEVWEERKPYKTLQAQAPEKSKNKKKQRKGPHRKSQTLQFDEQTLKKARRK
notes: Expressed in HEK293 cells and purified on Protein A; highly glycosylated; also called BMP3 pro-MuIgG2a; BMP3 pro-MuIg2a; not shown: murine IgG2a Fc
